Experimental findings from PMC6679980 (Biochimica et biophysica acta. General subjects, 2019) are described below.

This test has as its target GST-FL-UBQLN1 (full-length wild-type human UBQLN1 GST-fusion protein) (human, UniProt Q9UMX0 1-589). Briefly: pull-down.

Sequence of GST-FL-UBQLN1 (full-length wild-type human UBQLN1 GST-fusion protein) (Q9UMX0 whole entry, the tested form may be a part): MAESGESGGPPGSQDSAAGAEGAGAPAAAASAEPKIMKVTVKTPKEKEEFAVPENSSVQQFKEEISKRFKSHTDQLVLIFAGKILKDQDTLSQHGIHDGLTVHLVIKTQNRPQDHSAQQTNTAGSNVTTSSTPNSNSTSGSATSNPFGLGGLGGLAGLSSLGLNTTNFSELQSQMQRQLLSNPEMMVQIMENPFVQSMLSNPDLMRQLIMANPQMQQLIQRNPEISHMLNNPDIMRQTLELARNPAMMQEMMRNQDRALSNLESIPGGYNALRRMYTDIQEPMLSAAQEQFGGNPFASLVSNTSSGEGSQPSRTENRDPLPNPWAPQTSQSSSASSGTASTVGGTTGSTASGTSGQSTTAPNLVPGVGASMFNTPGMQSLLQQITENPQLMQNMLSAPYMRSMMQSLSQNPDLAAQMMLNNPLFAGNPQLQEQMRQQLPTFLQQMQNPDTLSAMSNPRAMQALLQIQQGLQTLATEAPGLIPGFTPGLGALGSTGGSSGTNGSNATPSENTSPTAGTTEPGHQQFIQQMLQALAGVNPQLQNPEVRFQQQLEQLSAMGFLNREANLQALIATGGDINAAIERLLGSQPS

B1: Full-length human S5a proteasome subunit, His-tagged (natural protein, UniProt P55036 1-377, looked up)
chain: MVLESTMVCVDNSEYMRNGDFLPTRLQAQQDAVNIVCHSKTRSNPENNVGLITLANDCEVLTTLTPDTGRILSKLHTVQPKGKITFCTGIRVAHLALKHRQGKNHKMRIIAFVGSPVEDNEKDLVKLAKRLKKEKVNVDIINFGEEEVNTEKLTAFVNTLNGKDGTGSHLVTVPPGPSLADALISSPILAGEGGAMLGLGASDFEFGVDPSADPELALALRVSMEEQRQRQEEEARRAAAASAAEAGIATTGTEDSDDALLKMTISQQEFGRTGLPDLSSMTEEEQIAYAMQMSLQGAEFGQAESADIDASSAMDTSEPAKEEDDYDVMQDPEFLQSVLENLPGVDPNNEAIRNAMGSLASQATKDGKKDKKEEDKK
Turning to B1, the binding result is “binds”.
